Laboratory results: patent US8030017B2, “Thermostable luciferases and methods of production” (Promega Corporation, priority 1997, dated 2011)
Positions count from the first letter of the chain named.

B1: Luc49-7C6: mutant luciferase, SEQ ID NO:14 (protein)
chain: MADKNILYGPEPFYPLADGTAGEQMFYALSRYADISGCIALTNAHTKENVLYEEFLKLSCRLAESFKKYGLKQNDTIAVCSENGLQFFLPIIASLYLGIIAAPVSDKYIERELIHSLGIVKPRIIFCSKNTFQKVLNVKSKLKYVETIIILDLNEDLGGYQCLNNFISQNSDINLDVKKFKPYSFNRDDQVALVMFSSGTTGVSKGVMLTHKNIVARFSLAKDPTFGNAINPTTAILTVIPFHHGFGMMTTLGYFTCGFRVVLMHTFEEKLFLQSLQDYKVESTLLVPTLMAFLAKSALVEKYDLSHLKEIASGGAPLSKEIGEMVKKRFKLNFVRQGYGLTETTSAVLITPNNDVRPGSTGKIVPFHAVKVVDPTTGKILGPNEPGELYFKGDMIMKGYYNNEEATKAIINKDGWLRSGDIAYYDNDGHFYIVDRLKSLIKYKGYQVAPAEIEGILLQHPYIVDAGVTGIPDEAAGELPAAGVVVQTGKYLNEQIVQNFVSSQVSTAKWLRGGVKFLDEIPKGSTGKIDRKVLRQMFEKHTNG
modifications: Mutant luciferase
B2: 49-7a5: mutant luciferase, SEQ ID NO:17 (protein)
chain: B1 chain with A2E, L220I, P386T
modifications: Mutant luciferase
B3: Luc78-0B10: mutant luciferase, SEQ ID NO:19 (protein)
chain: MADKNILYGPEPFYPLADGTAGEQMFDALSRYADISGCIALTNAHTKENVLYEEFLKLSCRLAESFKKYGLKQNDTIAVCSENGLQFFLPVIASLYLGIIAAPVSDKYIERELIHSLGIVKPRIIFCSKNTFQKVLNVKSKLKSVETIIILDLNEDLGGYQCLNNFISQNSDSNLDVKKFKPYSFNRDDQVALVMFSSGTTGVPKGVMLTHKNIVARFSLAKDPTFGNAINPTTAILTVIPFHHGFGMMTTLGYFTCGFRVVLMHTFEEKLFLQSLQDYKVESTLLVPTLMAFLAKSALVEKYDLSHLKEIASGGAPLSKEIGEMVKKRFKLNFVRQGYGLTETTSAVLITPKGDARPGSTGKIVPFHAVKVVDPTTGKILGPNEPGELYFKGAMIMKGYYNNEEATKAIIDNDGWLRSGDIAYYDNDGHFYIVDRLKSLIKYKGYQVAPAEIEGILLQHPYIVDAGVTGIPDEAAGELPAAGVVVQTGKYLNEQIVQDFVSSQVSTAKWLRGGVKFLDEIPKGSTGKIDRKVLRQMFEKHTNG
modifications: Mutant luciferase

Key:
[1] = Robotic quantitative screen of E. coli lysates: luminescence activity (Li), expression/specific activity; format: biochemical; conditions: relative value
Experimental: A plate containing cells is retrieved from the carousel and placed on the shaker for 3-5 minutes to fully mix the cells. The cells tend to settle from solution upon standing.
To measure Optical Density (O.D.), the plate is moved from the shaker to the locator near the luminometer; the lid is removed and the plate placed into the luminometer. The O.D. is measured using a 620 nm filter.
To prepare a cell lysate, the plate of cells is first retrieved from the refrigerator and mixed on the shaker to resuspend the cells. A new plate from the carousel without a lid is placed in the reagent dispenser and 20 μl of Buffer A is added to each well. This is placed in the pipetting station.
The plate is then moved to the reagent dispenser to add 175 μl of Buffer B, and then mixed on the shaker for about 15 minutes or more. The combination of the freeze/thaw and Buffer B will cause the cells to lyse.
(§1) One daughter plate is placed in the luminometer and the 1X assay method is used. After the assay, the plate is placed in the ambient incubator, and the second daughter plate is placed in the luminometer. For the second plate, the 0.02X assay method is used. This plate is discarded, and the first plate is returned from the incubator to the luminometer. The repeat assay method is used (i.e., no reagent is injected). Afterwards, the plate is again returned to the ambient incubator.
1X Assay reagent: 5 μM Luciferin; 175 μM ATP; 20 mM Tricine, pH 8.0; 0.1 mM EDTA
(§2) The following criteria were used for screening purposes. The temperature chosen for the enzyme stability parameter was such that the parent enzyme would decay 100 to 1000 fold over 10 hours (see Table 1). Criteria 1 is achieved manually; data for criteria 2-6 is generated by robotic analysis. For all criteria, the maximum value as described is selected. • 1. In vivo screen. The brightest clones are selected at a given temperature. • 2. Expression/specific activity. The value for normalized luminescence is calculated as the ratio of luminescence to optical density. The value is reported as the ratio with the reference value. • 3. Enzyme stability. Measurements of normalized luminescence of the incubated samples (3 taken over about 15 hours) are fitted to In(L)=In(L0)−(t/τ), where L is normalized luminescence and t is time. τ is a measure of the enzyme stability. The value is reported as the ratio with the reference value, and the correlation coefficients are calculated. • 4. Substrate binding. Measurements of normalized luminescence with 1X and 0.02X are taken at the initial reading set, and 1X and 0.06X are taken at the 5 hour set. The ratio of the 0.02X:1X and 0.06X:1X gives the relative luminescence at 0.02X and 0.06X concentrations. These values, along with the relative luminescence at 1X (i.e., 1), are fitted to a Lineweaver-Burk plot to yield the Km:app,total for the substrates ATP, luciferin, and CoA. The values are reported as the inverse ratio with the reference value, and the correlation coefficients are calculated. • 5. Signal stability. The luminescence of the initial IX luminescent reactions are re-measured 3 additional times over about 15 hours. These values are fitted to In(L)=In(L0)−(t/τ) and the integral over t (15 hours) is calculated. Signal stability is then calculated as S=(1−int(L)/L0t)^2. The values are reported as the inverse ratio with the reference value, and the correlation coefficients are calculated. • 6. Composite fitness. The values of criteria 2 through 5 are combined into a single composite value of fitness (or commercial utility). This value is based on a judgment of the relative importance of the other criteria. This judgment is given below:
Normalize luminescence data: For each measurement of luminescence in the eight daughter plates, the normalized luminescence is calculated by dividing the relative light units by the optical density of the original plate. […]

[2] = Robotic quantitative screen of E. coli lysates: enzyme stability (tau) at elevated temperature; format: physicochemical; conditions: relative value
Experimental: Two white assay plates (Labsystems #9502887) are obtained from the plate feeder and placed in the pipetter. The incubation plate from the shaker is placed in the pipetter, and the lid removed and placed on the nearby locator. Two daughter plates are made using the pipetting procedure (see “Create Pair of Daughter Plates from Incubation Plate”). Afterwards, the lid is replaced on the parent plate, and the plate is placed in a high temperature incubator. [ranging from 31° C. to about 65° C. depending on the clone.]
To begin the second set of measurements, the plate from the high temperature incubator is placed in the shaker to mix.
In the final set of measurements, the plate from the high temperature incubator is again placed in the shaker to mix.
as §2
Calculate enzyme stability (τ): For each sample, use linear regression to fit In(L1x)=In(L0)−(t/τ) using the three luminescence measurements with 1X substrate concentrations (Plates 1, 5, 8). Also calculate the regression coefficient.
Calculate the reference-normalized values: For the criteria parameter of each sample, a reference-normalized value is determined by calculating the ratio or inverse ratio with the respective reference value. The reference-normalized values are Li/Lir, τ/τr, Kmr/Km:app,total, and Sr/S, where reference values are calculated from the equations of the appropriate reference surface.
“Enzyme stability” was determined by the rate of activity loss from cell lysates over 10 hours. In successive rounds of evolution the incubation temperature of the lysates was increased.
Robotic Automation: Robotic automation was used in the quantitative screens to accurately perform the large number of required quantitative assays on the cultured cells. […]

[3] = Robotic quantitative screen of E. coli lysates: signal stability (S), sustained enzymatic turnover; format: biochemical; conditions: inverse ratio with reference
Experimental: as §1
The plate in the ambient incubator is returned to the luminometer and the repeat assay method is again used. The plate is returned afterwards to the ambient incubator.
The plate in the ambient incubator is returned to the luminometer and the repeat assay method is again used. The plate is discarded afterwards.
as §2
Calculate signal stability (S): For each sample, use linear regression to fit In(L)=In(L0)[…] using the four luminescence measurements of the initial microplate with 1X substrate concentrations (Plates 1, 3, 4, and 7). Also calculate the regression coefficient. From the calculated values of T and L0, calculate the integral of luminescence by int(L)=τL0(1−exp(−tf/τ)), where tf is the average time of the last measurement (e.g., 15 hours). The signal stability is calculated as S=(1−int(L)/Litf)^2, where Li is the initial measurement of normalized luminescence with 1× substrate concentration (Plate 1).
[Note: To correct for evaporation, an equation S=(1+K−int(L)/Litf)^2, may be used where 1/K=2(relative change of liquid volume at tf).]
Calculate the reference-normalized values: For the criteria parameter of each sample, a reference-normalized value is determined by calculating the ratio or inverse ratio with the respective reference value. […]

[4] = Thermostability (half-life, retained activity) of luciferases incubated in aqueous solution at different temperatures; format: physicochemical; conditions: for thermostability compared with parent enzyme: 4° C., times of less than 15 days (FIG. 49); for half-life: 22° C. (FIGS. 9, 10); for Thermostability Of Luciferase Activity (Half-Life In Hours): purified enzyme
Excerpt: As defined herein, a “thermostable” enzyme, e.g., a luciferase, or an enzyme which has “thermostability”, is an enzyme which under certain conditions, e.g., at certain temperature, in aqueous solution and/or for certain periods of time, has an increased retention of activity relative to a reference enzyme. For example, for a thermostable luciferase, a reference luciferase may be native wild-type luciferase or recombinant wild-type luciferase. Preferably, for beetle luciferases, the activity is luminescence under conditions of saturation with luciferin and ATP. One measure of thermostability of an enzyme is the half-life of the enzyme in an aqueous solution (the time over which 50% of the activity is lost) at a stated temperature.
(§3) Protein purification: Four mutants that are described herein (Luc[T249M], Luc49-7C6, Luc78-0B10, and Luc90-1B5) were purified using a previously published procedure (Hastings et al., 1996).
[…] Enzyme stability was determined from diluted proteins incubated at different temperatures, and aliquots were removed at different time points. A linear regression of the natural log of the luminescence and time was calculated. Half-life was calculated as the 1n(0.5)/slope of the regression.

[5] = Michaelis-Menten constant for luciferin of purified mutants; format: biochemical; conditions: purified enzyme
Excerpt: (§4) Substrate binding was screened by measuring an apparent composite Km (see Example 2) for luciferin and ATP. […] The Km for luciferin rose while the Km for ATP declined (Table 3). The reason for this change is unknown, although it can be speculated that more efficient release of oxyluciferin or luciferin inhibitors could lead to more rapid enzyme turnover.
as §3

[6] = Michaelis-Menten constant for ATP of purified mutants; format: biochemical; conditions: purified enzyme
Excerpt: as §4, §3

[7] = Control is Luc46-2H3 at 54° C. (=1)
[8] = Room Temperature (about 25° C.)
[9] = Control is Luc71-5D4 at 60° C. (=1)

Molecule	Luminescence (Li) [1, 7]	Enzyme stability (tau) [2, 7]	Signal stability (S) [3, 7]	thermostability compared with parent enzyme [4]	half-life [4] [days]	Thermostability Of Luciferase Activity (Half-Life In Hours) ([4]; 37° C.) [h]	half-life calculated from regression of log luminescence ([4]; 50° C. (FIG. 7)) [hours]	Thermostability Of Luciferase Activity (Half-Life In Hours) ([4]; 50° C.) [h]	half-life calculated from regression of log luminescence ([4]; 60° C. (FIGS. 6, 8)) [hours]	Thermostability Of Luciferase Activity (Half-Life In Hours) ([4]; 60° C.) [h]	Thermostability Of Luciferase Activity (Half-Life In Hours) [4, 8] [h]	Km [5] [µM]	Km [6] [µM]	Luminescence (Li) [1, 9]	Enzyme stability (tau) [2, 9]	Signal stability (S) [3, 9]	half life calculated from regression of log luminescence ([4]; FIG. 5, temperature not given) [hours]
B1	1.12	1.9	1.01	not distinguishable from the parent enzyme	64	68	100.5	31	2.9	6.3	430	0.99	14				
B2	1.08	1.44	0.99														
B3				not distinguishable from the parent enzyme	109	220		47	38	15	3000	1.6	3.4	1.93	2	0.9926	144
